Results on one molecule are retold here after PMC6839450 (ACS chemical biology, 2015).

For the experiment, the target named is full-length BCL-XL (UniProt Q07817-1 1-233). The experiment in a line: fluorescence polarisation.

Bridges are numbered along the chain shown (N, C = ends). Where no end group is shown, it is not given here. [ ]: non-standard residue; d: D form. The star is where a group is joined. FITC = O=C1OC2(c3ccc(O)cc3Oc3cc(O)ccc32)c2ccc(NC(=S)*)cc21; olefin residue = not defined here

Sequence of full-length BCL-XL (Q07817 whole entry): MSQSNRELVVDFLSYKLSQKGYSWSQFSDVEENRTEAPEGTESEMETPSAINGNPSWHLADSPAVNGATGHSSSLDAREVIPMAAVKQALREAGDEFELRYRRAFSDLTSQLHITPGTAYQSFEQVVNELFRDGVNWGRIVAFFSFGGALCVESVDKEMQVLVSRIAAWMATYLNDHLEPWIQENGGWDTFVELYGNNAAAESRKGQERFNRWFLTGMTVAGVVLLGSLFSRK

For {FITC}-EIWIAQELR[olefin residue]IGD[olefin residue]FNAYYA (staple 10-14; not fully specified; reading uncertain) [FITC-BIM SAHBA2], binding was characterised by a dissociation constant (Kd) of 68 nM.
